Target: SoP450 from Shimazuella soli (CPR-containing self-sufficient cytochrome P450, homologue of P450BM3) (Shimazuella soli)
Test: SEC

With “SoP450 from Shimazuella soli (CPR-containing self-sufficient cytochrome P450, homologue of P450BM3) (enzyme)” the stoichiometry N was 2.

— paper doi:10.1101/2025.11.29.689641
